Reference: patent US20050123911A1, “Method of mass spectrometry” (priority 2001, published 2005)
Values joined by “and” are separate entries in the source; they are usually repeats but may differ in a detail not shown here. Equal entries are not always repeated. Gly∗ = not defined here; Ac∗ = not defined here

How the values were obtained:
Trypsin = molecular target: T1, Trypsin (Bos taurus, UniProt P00760); assay: Incubation of single DiMaS peptides with trypsin, LC-MS analysis; assay type: biochemical; settings: for Cleaved sequence following incubation with trypsin (FIG. 13): mass spectrum; for Cleavage site on incubation with Trypsin / Cleaved fragment identified after incubation with Trypsin (Table 1): room temperature, 9 h; for Cleavage site on incubation with Trypsin: aliquot every 2 h, LC-MS; for Cleaved fragment identified after incubation with Trypsin (Table 1): HPLC/MS
T1 construct: purchased Sigma T1426
T1 sequence (P00760 24-246): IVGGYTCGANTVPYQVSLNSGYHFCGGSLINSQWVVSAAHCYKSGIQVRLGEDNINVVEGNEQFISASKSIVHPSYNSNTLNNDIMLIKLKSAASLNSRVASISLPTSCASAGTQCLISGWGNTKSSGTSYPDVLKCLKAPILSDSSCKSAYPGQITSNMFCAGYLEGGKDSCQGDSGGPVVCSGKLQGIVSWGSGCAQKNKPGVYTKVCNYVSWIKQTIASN
Method: (§1) The peptide (10 μl of 1 mM in Acetonitrile) was treated with a solution of buffer (50 mM HEPES, 150 mM NaCl and 1 μM Zn^2+, 35 μl), and finally Trypsin was added (5 μl, 2.5 μM). The reaction was allowed to take place at room temperature for 9 h and an aliquot of solution was removed for LC-MS analysis.
Peptides 4 and 10 were incubated with trypsin as described above and then analysed by HPLC/MS to give masses according to Table 1.
Compounds 7(2) and 7(13) (10 μl in Acetonitrile) were treated with a solution of buffer (50 mM HEPES, 150 mM NaCl and 1 μM Zn^2+, 35 μl), and finally Trypsin was added (5 μl, 2.5 μM). The reaction was allowed to take place at room temperature for 9 h and an aliquot of solution was removed for LC-MS analysis every 2 h.

[1] = molecular target: T2, neutral endopeptidase (NEP) (Homo sapiens, UniProt P08473); assay: Incubation of DiMaS peptides with NEP, LC-MS analysis; assay type: biochemical; settings: room temperature, 9 h, HPLC/MS
T2 construct: purchased BioMep
Method: as §1, with “neutral endopeptidase (NEP)” for “Trypsin”
Peptides 4, 6 and 10 were incubated with NEP as described above and then analysed by HPLC/MS to give masses according to Table 1.

T2 sequence (P08473 whole entry, species assumed): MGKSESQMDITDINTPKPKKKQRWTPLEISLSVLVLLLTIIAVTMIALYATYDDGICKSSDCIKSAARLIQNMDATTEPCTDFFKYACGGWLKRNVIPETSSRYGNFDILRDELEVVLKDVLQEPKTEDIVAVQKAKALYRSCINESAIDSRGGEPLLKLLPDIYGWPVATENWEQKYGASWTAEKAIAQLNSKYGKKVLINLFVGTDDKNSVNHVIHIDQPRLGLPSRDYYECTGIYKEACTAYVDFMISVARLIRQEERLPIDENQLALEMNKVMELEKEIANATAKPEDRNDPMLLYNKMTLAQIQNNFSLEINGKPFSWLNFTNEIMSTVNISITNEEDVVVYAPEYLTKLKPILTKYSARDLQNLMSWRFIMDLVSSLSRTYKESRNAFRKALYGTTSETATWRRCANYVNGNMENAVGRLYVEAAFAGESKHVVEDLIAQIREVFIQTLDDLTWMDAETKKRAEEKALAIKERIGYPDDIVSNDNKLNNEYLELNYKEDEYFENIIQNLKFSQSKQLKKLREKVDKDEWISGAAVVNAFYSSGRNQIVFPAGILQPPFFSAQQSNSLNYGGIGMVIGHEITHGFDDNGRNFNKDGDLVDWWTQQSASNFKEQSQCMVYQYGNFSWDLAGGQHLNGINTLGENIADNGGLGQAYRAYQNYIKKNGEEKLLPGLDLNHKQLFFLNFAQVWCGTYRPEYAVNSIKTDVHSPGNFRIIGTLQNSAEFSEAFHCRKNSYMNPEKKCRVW

Substance | Cleaved sequence following incubation with trypsin (FIG. 13) (Trypsin) | Cleavage site on incubation with Trypsin (Trypsin) | Cleaved fragment identified after incubation with Trypsin (Table 1) (Trypsin) | Cleaved fragment identified after incubation with NEP (Table 1) [1]
Ac-Gly* Ala Ala Phe Lys Arg Ala Gly Ala Ala Lys(Ac*)-NH2 ({Ac-Gly∗}-AAFKRAGAAK(Ac∗)-NH2; reading uncertain; also: isotope labels: Gly* with D2 or H2, Ac* with D3 or H3, printed as Ac-Gly* Ala Ala Phe Lys Arg Ala Gly Ala Ala Lys(Ac*)-NH2) [7(17)] | Ac-Gly-Ala-Ala-Phe-Lys-Arg-OH |  |  | 
Ac-Gly* Ala Gly Arg Ala Asn Ile Asp Phe Ala Lys(Ac*)-NH2 ({Ac-Gly∗}-AGRANIDFAK(Ac∗)-NH2; reading uncertain; also: isotope labels: Gly* with D2 or H2, Ac* with D3 or H3, printed as Ac-Gly* Ala Gly Arg Ala Asn Ile Asp Phe Ala Lys(Ac*)-NH2) [7(2)] | H2N-Ala-Asn-Ile-Asp-Phe-Ala-Lys(ac)-NH2 | cleavage after the arginine residue |  | 
Ac-Gly* Ala Phe Leu Ala Arg Asn Ile Asp Leu Lys(Ac*)-NH2 ({Ac-Gly∗}-AFLARNIDLK(Ac∗)-NH2; reading uncertain; also: isotope labels: Gly* with D2 or H2, Ac* with D3 or H3, printed as Ac-Gly* Ala Phe Leu Ala Arg Asn Ile Asp Leu Lys(Ac*)-NH2) [7(13)] |  | cleavage after the arginine residue |  | 
AcGly-Pro-Arg-Ala-Ala-Ala-Gly-NH2 (Ac-GPRAAAG-NH2; also: partly isotope-labelled (D in acetyl and a Gly), extent not given here) [Peptide 4] |  |  | 371, 374: AcGlyProArgOH and H2NalaAlaAlaGlyNH2 | AcGlyProArgAlaOH and 239, 241: H2NAlaAlaGlyNH2
AcHis-His-Gln-Lys-Leu-Val-Phe-Phe-Ala-Gly-NH2 (Ac-HHQKLVFFAG-NH2; also: partly isotope-labelled (D in acetyl and a Gly), extent not given here) [Peptide 10] |  |  | 591, 594 AcHisHisGlnLysOH and H2NleuValPhePheAlaGlyNH2 | AcHisHisGlnLysLeuOH and 315, 317: NH2PheAlaGlyNH2
AcSer-Glu-Val-Asn-Leu-Asp-Ala-Glu-Phe-Gly-NH2 (Ac-SEVNLDAEFG-NH2; also: partly isotope-labelled (D in acetyl and a Gly), extent not given here) [Peptide 6] |  |  |  | H2NleuAspAlaGluPheGlyNH2
